The RNAGym collection of RNA variant scans (doi:10.1093/molbev/msab373)

B1: Azoarcus group I ribozyme (parent)
chain: GUGCCUUGCGCCGGGAAACCACGCAAGGGAUGGUGUCAAAUUCGGCGAAACCUAAGCGCCCGCCCGGGCGUAUGGCAACGCCGAGCCAAGCUUCGGCGCCUGCGCCGAUGAAGGUGUAGAGACUAGACGGCACCCACCUAAGGCAAACGCUAUGGUGAAGGCAUAGUCCAGGGAGUGGCGAAAGUCACACAAACCGG

Variants of: B1
Experiment: reverse-splicing fitness (ratio to wild type); higher = more active; in vitro selection; Mg2+ level not given
Summary of the method: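 An in vitro group I ribozyme library with randomized positions was T7-transcribed and gel-purified. In triplicate, 10 pmol RNA in EPPS pH 7.5 was reacted with 50 pmoles of a 30-nt RNA substrate for 1 h at 37 °C across several added MgCl2 levels (1–48 mM), then stopped with EDTA. Products were reverse transcribed from a substrate-complementary primer, PCR-amplified and sequenced (HiSeq 4000). Fitness is a variant's read proportion after selection over that before, normalised to wild type.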

Compared with C82A A120C A145C C150U C169G U176A, C82A A120C A145C C150U C169G U176G is lower in reverse-splicing fitness: 0.0287 for the first, 0.00542 for the second.

Going from C82A A120C A145C C150U C169G U176C to C82A A111U C150G C169A U176C, the reverse-splicing fitness falls from 0.0186 to 0.0105.

First: C82A A111U C150G C169A U176G
Second: C82A A111U C150G C169A U176A
The reverse-splicing fitness of the first is lower: 0.00757 for the first, 0.0116 for the second.

Going from C82A A111U A145U C169U U176G to C82A A111U A145U C169U U176C, the reverse-splicing fitness rises from 0.00541 to 0.0139.

First: C82A A111U A145U C169U U176A
Second: C82A A120C A145C C150G U176C
The reverse-splicing fitness of the first is higher: 0.0142 for the first, 0.0119 for the second.

First: C82A A120C A145C C150G U176A
Second: C82A A120C A145C C150G U176G
The reverse-splicing fitness of the first is higher: 0.0063 for the first, 0.00331 for the second.

First: C82A A120C A145C U176A
Second: C82A A120C A145C U176C
The reverse-splicing fitness of the first is lower: 0.0359 for the first, 0.0514 for the second.

Going from C82A A120C A145C U176G to C82A A111U C150G C169G U176A, the reverse-splicing fitness falls from 0.00935 to 0.00782.

Compared with C82A A111U C150G C169G U176G, C82A A111U C150G C169G U176C is lower in reverse-splicing fitness: 0.00641 for the first, 0.00482 for the second.

First: C82A A111U C150G C169U
Second: C82A A111U C150G C169A
The reverse-splicing fitness of the first is higher: 0.0101 for the first, 0.00953 for the second.

Compared with C82A A111U C150G C169G, C82A A120C A145G C150G C169U U176C is higher in reverse-splicing fitness: 0.00756 for the first, 0.015 for the second.

Going from C82A A120C A145G C150G C169U U176A to C82A A120C A145G C150G C169U U176G, the reverse-splicing fitness falls from 0.0135 to 0.00779.

First: C82A A111U A145U C169A U176C
Second: C82A A111U A145U C169A U176G
The reverse-splicing fitness of the first is higher: 0.0114 for the first, 0.00655 for the second.

Going from C82A A111U A145U C169A U176A to C82A A111U A145U C150A C169G U176C, the reverse-splicing fitness rises from 0.012 to 0.0188.

Compared with C82A A111U A145U C150A C169G U176G, C82A A111U A145U C150A C169G U176A is higher in reverse-splicing fitness: 0.00712 for the first, 0.0157 for the second.

Going from C82A A111U A145U C150A C169A to C82A A111U A145U C150A C169G, the reverse-splicing fitness falls from 0.0092 to 0.00786.

Going from C82A A111U A145U C150A C169U to C82A A120C A145C C150U C169G, the reverse-splicing fitness falls from 0.0108 to 0.00856.

First: C82A A120C A145C C150U C169A
Second: C82A A120C A145C C150U C169U
The reverse-splicing fitness of the first is lower: 0.00982 for the first, 0.0118 for the second.

First: C82A A120C A145G C150U U176A
Second: C82A A120C A145G C150U U176C
The reverse-splicing fitness of the first is lower: 0.0309 for the first, 0.0551 for the second.

First: C82A A120C A145G C150U U176G
Second: C82A A111U A145U C150U C169A U176A
The reverse-splicing fitness of the first is lower: 0.0102 for the first, 0.0148 for the second.

First: C82A A111U A145U C150U C169A U176C
Second: C82A A111U A145U C150U C169A U176G
The reverse-splicing fitness of the first is higher: 0.0108 for the first, 0.00727 for the second.

Compared with C82A A111U A145U C169G U176G, C82A A111U A145U C169G U176A is higher in reverse-splicing fitness: 0.00625 for the first, 0.0127 for the second.

Going from C82A A111U A145U C169G U176C to C82A A111U A145U C150G U176G, the reverse-splicing fitness falls from 0.0142 to 0.00528.

Compared with C82A A111U A145U C150G U176C, C82A A111U A145U C150G U176A is lower in reverse-splicing fitness: 0.0189 for the first, 0.01 for the second.

Compared with C82A A120C A145G C150U C169U, C82A A120C A145G C150U C169A is lower in reverse-splicing fitness: 0.019 for the first, 0.0108 for the second.

Compared with C82A A120C A145G C150U C169G, C82A A111U A145U C150U C169U is higher in reverse-splicing fitness: 0.00896 for the first, 0.0124 for the second.

First: C82A A111U A145U C150U C169G
Second: C82A A111U A145U C150U C169A
The reverse-splicing fitness of the first is lower: 0.00969 for the first, 0.00985 for the second.

First: C82A A120C A145C C150U U176G
Second: C82A A120C A145C C150U U176C
The reverse-splicing fitness of the first is lower: 0.00635 for the first, 0.0227 for the second.

Compared with C82A A120C A145C C150U U176A, C82A A111U A145U C150U U176C is higher in reverse-splicing fitness: 0.0172 for the first, 0.0933 for the second.

Compared with C82A A111U A145U C150U U176G, C82A A111U A145U C150U U176A is higher in reverse-splicing fitness: 0.0184 for the first, 0.0636 for the second.

First: C82A A120C A145C C150G C169A U176A
Second: C82A A120C A145C C150G C169A U176G
The reverse-splicing fitness of the first is higher: 0.0105 for the first, 0.00632 for the second.

Going from C82A A120C A145C C150G C169A U176C to C82A A111U C150A C169U U176G, the reverse-splicing fitness rises from 0.00816 to 0.00835.

Compared with C82A A111U C150A C169U U176C, C82A A111U C150A C169U U176A is lower in reverse-splicing fitness: 0.0171 for the first, 0.0167 for the second.

Compared with C82A A111U C169U U176A, C82A A111U C169U U176G is lower in reverse-splicing fitness: 0.0152 for the first, 0.00671 for the second.

Compared with C82A A111U C169U U176C, C82A A111U A145G C169G U176C is higher in reverse-splicing fitness: 0.0132 for the first, 0.0304 for the second.

Going from C82A A111U A145G C169G U176G to C82A A111U A145G C169G U176A, the reverse-splicing fitness rises from 0.00674 to 0.023.

First: C82A A111U C150A C169G U176G
Second: C82A A111U C150A C169G U176C
The reverse-splicing fitness of the first is lower: 0.00794 for the first, 0.0266 for the second.

Compared with C82A A111U C150A C169G U176A, C82A A120C A145C C169A is lower in reverse-splicing fitness: 0.0202 for the first, 0.00831 for the second.

Compared with C82A A120C A145C C169U, C82A A120C A145C C169G is lower in reverse-splicing fitness: 0.0188 for the first, 0.0102 for the second.

First: C82A A111U A145U C150U C169G U176A
Second: C82A A111U A145U C150U C169G U176G
The reverse-splicing fitness of the first is higher: 0.0142 for the first, 0.00663 for the second.

Compared with C82A A111U A145U C150U C169G U176C, C82A A120C A145G C169U is higher in reverse-splicing fitness: 0.0156 for the first, 0.0214 for the second.

Work on C82A A120C A145G C169A yielded a reverse-splicing fitness of 0.00985.
